These results are taken from patent US12558381B2, “Development of amnion-like tissue from human pluripotent stem cells” (THE REGENTS OF THE UNIVERSITY OF MICHIGAN, priority 2016, dated 2026).

The assay concerns hPSCs cultured in Gel-3D. Kind of assay: hPSC amniogenesis assay (Gel-3D culture), requirement of BMP-SMAD signalling. The format is cell-based, human. The text has this:
Implantation-Like Niche Described herein is a biomimicry approach to engineer a biomaterial-based in vitro hPSC culture system for efficient generation of early human amniotic tissue. Specifically, a biomimetic implantation-like niche for cultured hPSCs was constructed by implementing two major biophysical factors seen in the in vivo amniogenic niche: a three-dimensional (3D) extracellular matrix (ECM) that is provided by the basement membrane surrounding the epiblast during implantation 1l; and a soft tissue bed provided by the uterine wall and trophoblast to support the developing amnion (FIG. 1a,b). mTeSR1 medium and basement membrane matrix (Geltrex) was used to render the culture permissive for pluripotency maintenance. In this culture system, H9 human embryonic stem cells (hESCs) were plated as single cells at 30,000 cells cm^2 onto a thick, soft gel bed of Geltrex (with thickness 100 μm, bulk Young's modulus 900 Pa, coated on a glass coverslip), in mTeSR1 medium supplemented with the ROCK inhibitor Y2763212 (FIG. 1b). At 24 h (day 1), medium containing Y27632 was replaced by fresh mTeSR1 supplemented with 4% (v/v) Geltrex to establish a 3D implantation-like niche (referred to henceforth as the ‘Gel-3D’ condition). To assess the effect of ECM dimensionality and matrix rigidity, respectively, several modifications of this Gel-3D condition were tested (FIG. 1b). First, the Geltrex supplement was excluded from the medium, with the gel bed retained (referred to henceforth as the ‘Gel-2D’ condition). Second, the soft gel bed was replaced by a 1% Geltrex-coated glass coverslip (referred to henceforth as the ‘Glass-3D’ condition). Finally, a standard 2D culture, using a 1% Geltrex-coated glass coverslip (referred to henceforth as the ‘Glass-2D’ condition), was examined as a control that maintains hPSC self-renewal. Culture medium was replenished daily. Analyses were performed at day 5 unless otherwise noted (FIG. 1b). […]

On to `c1ccc2c(-c3cnn4cc(-c5ccc(N6CCNCC6)cc5)cnc34)ccnc2c1` [LDN193189, reference compound], for which, where the note is “hPSCs cultured in Gel-3D, treatment on day 2 alone or on both days 2 and 3, FIG. 5d”, the hPSC-amnion development entry is given as “inhibited hPSC-amnion development”.

B1: NOGGIN: a protein that antagonizes BMP2/4/7 (protein, UniProt Q13253 28-232, looked up)
Noggin: QHYLHIRPAPSDNLPLVDLIEHPDPIFDPKEKDLNETLLRSLLGGHYDPGFMATSPPEDRPGGGGGAAGGAEDLAELDQLLRQRPSGAMPSEIKGLEFSEGLAQGKKQRLSKKLRRKLQMWLWSQTFCPVLYAWNDLGSRFWPRYVKVGSCFSKRSCSVPEGMVCKPSKSVHLTVLRWRCQRRGGQRCGWIPIQYPIISECKCSC
For B1, for the setting “hPSCs in Gel-3D, treatment with NOGGIN”, the “development of hPSC-amnion” value is reported as “inhibited”. Further, the amniogenic differentiation entry (restatement in Example 2 of the BMP-SMAD requirement for amniogenesis) was “inhibit amniogenic differentiation”.
